The numbers were not newly measured in patent publication US8765467B2, “Multicellular compositions of pluripotent human embryonic stem cells and cancer cells” (Technion Research and Development Foundation Ltd., priority 2003, dated 2014), which cites them from elsewhere.

In one data set the test system is tumors. The note with it: tumors grown in immunocompromised mice; literature (Folkman 2002).
For data set [1], the system named is human B-lineage acute lymphoblastic leukemia (B-ALL). The note with it: human B-ALL engrafted within marrow of immunodeficient mice; literature (Eisterer et al 2002).

B1: Endostatin (protein, UniProt P39060 1572-1754, looked up)
Endostatin: HSHRDFQPVLHLVALNSPLSGGMRGIRGADFQCFQQARAVGLAGTFRAFLSSRLQDLYSIVRRADRAAVPIVNLKDELLFPSWEALFSGSEGPLKPGARIFSFDGKDVLRHPTWPQKSVWHGSDPNGRRLTESYCETWRTEAPSATGQASSLLGGRLLGQSAASCHHAYIVLCIENSFMTASK
modifications: Endostatin
notes: antiangiogenic agent cited from the literature
For B1, the anti-angiogenic activity result in the data set with tumors was “potent anti-angiogenic agent”. The inhibitory effect entry in data set [1] was “did not exhibit any inhibitory effect”.
